Data as given in IntAct's records for PubMed 20059542.

B1: 26S proteasome non-ATPase regulatory subunit 4 homolog (Arabidopsis thaliana (Mouse-ear cress)), P55034 (parent)
chain: MVLEATMICIDNSEWMRNGDYSPSRLQAQTEAVNLLCGAKTQSNPENTVGILTMAGKGVRVLTTPTSDLGKILACMHGLDVGGEINLTAAIQIAQLALKHRQNKNQRQRIIVFAGSPIKYEKKALEIVGKRLKKNSVSLDIVNFGEDDDEEKPQKLEALLTAVNNNDGSHIVHVPSGANALSDVLLSTPVFTGDEGASGYVSAAAAAAAAGGDFDFGVDPNIDPELALALRVSMEEERARQEAAAKKAADEAGQKDKDGDTASASQETVARTTDKNAEPMDEDSALLDQAIAMSVGDVNMSEAADEDQDLALALQMSMSGEESSEATGAGNNLLGNQAFISSVLSSLPGVDPNDPAVKELLASLPDESKRTEEEESSSKKGEDEKK
partner: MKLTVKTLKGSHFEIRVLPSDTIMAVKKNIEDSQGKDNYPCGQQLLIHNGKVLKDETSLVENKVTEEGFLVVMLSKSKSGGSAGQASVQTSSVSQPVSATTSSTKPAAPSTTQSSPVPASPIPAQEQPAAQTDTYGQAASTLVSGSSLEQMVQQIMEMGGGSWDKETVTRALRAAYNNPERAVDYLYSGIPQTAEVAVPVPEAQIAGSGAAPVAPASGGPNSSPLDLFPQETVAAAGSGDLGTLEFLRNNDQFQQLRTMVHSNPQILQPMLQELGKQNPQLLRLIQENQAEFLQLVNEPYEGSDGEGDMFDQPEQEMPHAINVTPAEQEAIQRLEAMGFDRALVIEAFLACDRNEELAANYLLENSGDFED
B2: 26S proteasome non-ATPase regulatory subunit 4 homolog (Arabidopsis thaliana (Mouse-ear cress)), P55034 (parent)
chain: B1 chain
B3: DNA damage-inducible protein 1 (Saccharomyces cerevisiae), P40087 (parent)
chain: MDLTISNELTGEIYGPIEVSEDMALTDLIALLQADCGFDKTKHDLYYNMDILDSNRTQSLKELGLKTDDLLLIRGKISNSIQTDAATLSDEAFIEQFRQELLNNQMLRSQLILQIPGLNDLVNDPLLFRERLGPLILQRRYGGYNTAMNPFGIPQDEYTRLMANPDDPDNKKRIAELLDQQAIDEQLRNAIEYTPEMFTQVPMLYINIEINNYPVKAFVDTGAQTTIMSTRLAKKTGLSRMIDKRFIGEARGVGTGKIIGRIHQAQVKIETQYIPCSFTVLDTDIDVLIGLDMLKRHLACVDLKENVLRIAEVETSFLSEAEIPKSFQEGLPAPTSVTTSSDKPLTPTKTSSTLPPQPGAVPALAPRTGMGPTPTGRSTAGATTATGRTFPEQTIKQLMDLGFPRDAVVKALKQTNGNAEFAASLLFQ
B4: 26S proteasome regulatory subunit RPN13 (Saccharomyces cerevisiae), O13563 (parent)
chain: MSMSSTVIKFRAGVCEYNEDSRLCTPIPVQGEIEIKPNEEEELGFWDFEWRPTEKPVGRELDPISLILIPGETMWVPIKSSKSGRIFALVFSSNERYFFWLQEKNSGNLPLNELSAKDKEIYNKMIGVLNNSSESDEEESNDEKQKAQDVDVSMQD
B5: UV excision repair protein RAD23 (Saccharomyces cerevisiae), P32628 (parent)
chain: MVSLTFKNFKKEKVPLDLEPSNTILETKTKLAQSISCEESQIKLIYSGKVLQDSKTVSECGLKDGDQVVFMVSQKKSTKTKVTEPPIAPESATTPGRENSTEASPSTDASAAPAATAPEGSQPQEEQTATTERTESASTPGFVVGTERNETIERIMEMGYQREEVERALRAAFNNPDRAVEYLLMGIPENLRQPEPQQQTAAAAEQPSTAATTAEQPAEDDLFAQAAQGGNASSGALGTTGGATDAAQGGPPGSIGLTVEDLLSLRQVVSGNPEALAPLLENISARYPQLREHIMANPEVFVSMLLEAVGDNMQDVMEGADDMVEGEDIEVTGEAAAAGLGQGEGEGSFQVDYTPEDDQAISRLCELGFERDLVIQVYFACDKNEEAAANILFSDHAD
B6: Proteasomal ubiquitin receptor ADRM1 (Homo sapiens), Q16186 (parent)
chain: MTTSGALFPSLVPGSRGASNKYLVEFRAGKMSLKGTTVTPDKRKGLVYIQQTDDSLIHFCWKDRTSGNVEDDLIIFPDDCEFKRVPQCPSGRVYVLKFKAGSKRLFFWMQEPKTDQDEEHCRKVNEYLNNPPMPGALGASGSSGHELSALGGEGGLQSLLGNMSHSQLMQLIGPAGLGGLGGLGALTGPGLASLLGSSGPPGSSSSSSSRSQSAAVTPSSTTSSTRATPAPSAPAAASATSPSPAPSSGNGASTAASPTQPIQLSDLQSILATMNVPAGPAGGQQVDLASVLTPEIMAPILANADVQERLLPYLPSGESLPQTADEIQNTLTSPQFQQALGMFSAALASGQLGPLMCQFGLPAEAVEAANKGDVEAFAKAMQNNAKPEQKEGDTKDKKDEEEDMSLD
B7: Ubiquitin domain-containing protein DSK2 (Saccharomyces cerevisiae), P48510 (parent)
chain: MSLNIHIKSGQDKWEVNVAPESTVLQFKEAINKANGIPVANQRLIYSGKILKDDQTVESYHIQDGHSVHLVKSQPKPQTASAAGANNATATGAAAGTGATPNMSSGQSAGFNPLADLTSARYAGYLNMPSADMFGPDGGALNNDSNNQDELLRMMENPIFQSQMNEMLSNPQMLDFMIQSNPQLQAMGPQARQMLQSPMFRQMLTNPDMIRQSMQFARMMDPNAGMGSAGGAASAFPAPGGDAPEEGSNTNTTSSSNTGNNAGTNAGTNAGANTAANPFASLLNPALNPFANAGNAASTGMPAFDPALLASMFQPPVQASQAEDTRPPEERYEHQLRQLNDMGFFDFDRNVAALRRSGGSVQGALDSLLNGDV
B8: 26S proteasome regulatory subunit RPN10 (Saccharomyces cerevisiae), P38886 (parent)
chain: MVLEATVLVIDNSEYSRNGDFPRTRFEAQIDSVEFIFQAKRNSNPENTVGLISGAGANPRVLSTFTAEFGKILAGLHDTQIEGKLHMATALQIAQLTLKHRQNKVQHQRIVAFVCSPISDSRDELIRLAKTLKKNNVAVDIINFGEIEQNTELLDEFIAAVNNPQEETSHLLTVTPGPRLLYENIASSPIILEEGSSGMGAFGGSGGDSDANGTFMDFGVDPSMDPELAMALRLSMEEEQQRQERLRQQQQQQDQPEQSEQPEQHQDK

Variants of: B1
Settings: with rd23b_arath RAD23B

| Variant | effect of a mutation on the interaction |
| --- | --- |
| L226D;A227D;L228D;A229D;L230D;L286N;L287N;Q289N;A290D | decreasing interaction strength |

Variants of: B2
Settings: with dsk2_yeast DSK2, P48510

| Variant | effect of a mutation on the interaction |
| --- | --- |
| L286N;L287N;Q289N;A290D;L310N;A311N;L312N;A313D;L314N | with no effect |
| L310N;A311N;L312N;A313D;L314N | with no effect |
| L286N;L287N;Q289N;A290D | with no effect |
| L226D;A227D;L228D;A229D;L230D | disrupting interaction strength |

Variants of: B2
Settings: with ubql2_human UBQLN2, Q9UHD9

| Variant | effect of a mutation on the interaction |
| --- | --- |
| L286N;L287N;Q289N;A290D;L310N;A311N;L312N;A313D;L314N | with no effect |
| L310N;A311N;L312N;A313D;L314N | with no effect |
| L286N;L287N;Q289N;A290D | with no effect |
| L226D;A227D;L228D;A229D;L230D | disrupting interaction strength |

Variants of: B2
Settings: with rd23b_human RAD23B

| Variant | effect of a mutation on the interaction |
| --- | --- |
| L286N;L287N;Q289N;A290D;L310N;A311N;L312N;A313D;L314N | disrupting interaction strength |
| L226D;A227D;L228D;A229D;L230D;L286N;L287N;Q289N;A290D | decreasing interaction strength |
| L310N;A311N;L312N;A313D;L314N | disrupting interaction strength |
| L286N;L287N;Q289N;A290D | with no effect |
| L226D;A227D;L228D;A229D;L230D;L310N;A311N;L312N;A313D;L314N | disrupting interaction strength |
| L226D;A227D;L228D;A229D;L230D | with no effect |

Variants of: B3
Settings: with ubc_human UBC

| Variant | effect of a mutation on the interaction |
| --- | --- |
| L401A;G402A | disrupting interaction strength |

Variants of: B3
Settings: with ubc_human UBC
Remark: another data set of the same source

| Variant | effect of a mutation on the interaction |
| --- | --- |
| L401A;G402A | decreasing interaction strength |

Variants of: B4
Settings: with dsk2_yeast DSK2, P48510

| Variant | effect of a mutation on the interaction |
| --- | --- |
| E72Q | disrupting interaction |

Variants of: B4
Settings: with dsk2_yeast DSK2, P48510
Remark: another data set of the same source

| Variant | effect of a mutation on the interaction |
| --- | --- |
| F91R | disrupting interaction |

Variants of: B4
Settings: with dsk2_yeast DSK2, P48510
Remark: another data set of the same source

| Variant | effect of a mutation on the interaction |
| --- | --- |
| L43A | decreasing interaction |

Variants of: B5
Settings: with ubc_human UBC

| Variant | effect of a mutation on the interaction |
| --- | --- |
| M158A;G159A;Y160A;L367A;G368A;F369A | disrupting interaction strength |
| M158A;G159A;Y160A | disrupting interaction strength |
| L367A;G368A;F369A | with no effect |

Variants of: B5
Settings: with ubc_human UBC
Remark: another data set of the same source

| Variant | effect of a mutation on the interaction |
| --- | --- |
| M158A;G159A;Y160A | decreasing interaction strength |

Variants of: B6
Settings: with ubql1_human UBQLN1, Q9UMX0

| Variant | effect of a mutation on the interaction |
| --- | --- |
| D79N | decreasing interaction |

Variants of: B6
Settings: with dsk2_yeast DSK2, P48510

| Variant | effect of a mutation on the interaction |
| --- | --- |
| D79N | disrupting interaction |

Variants of: B6
Settings: with ubc_human UBC

| Variant | effect of a mutation on the interaction |
| --- | --- |
| D79N | decreasing interaction |

Variants of: B6
Settings: with ubql2_human UBQLN2, Q9UHD9

| Variant | effect of a mutation on the interaction |
| --- | --- |
| F76R | disrupting interaction |

Variants of: B6
Settings: with dsk2_yeast DSK2, P48510
Remark: another data set of the same source

| Variant | effect of a mutation on the interaction |
| --- | --- |
| F76R | disrupting interaction |

Variants of: B6
Settings: with ubc_human UBC
Remark: another data set of the same source

| Variant | effect of a mutation on the interaction |
| --- | --- |
| F76R | decreasing interaction |

Variants of: B6
Settings: with ubql2_human UBQLN2, Q9UHD9
Remark: another data set of the same source

| Variant | effect of a mutation on the interaction |
| --- | --- |
| L56A | disrupting interaction |

Variants of: B6
Settings: with dsk2_yeast DSK2, P48510
Remark: another data set of the same source

| Variant | effect of a mutation on the interaction |
| --- | --- |
| L56A | disrupting interaction |

Variants of: B6
Settings: with ubc_human UBC
Remark: another data set of the same source

| Variant | effect of a mutation on the interaction |
| --- | --- |
| L56A | decreasing interaction |

Variants of: B6
Settings: with ubql2_human UBQLN2, Q9UHD9
Remark: another data set of the same source

| Variant | effect of a mutation on the interaction |
| --- | --- |
| F98R | disrupting interaction |

Variants of: B6
Settings: with dsk2_yeast DSK2, P48510
Remark: another data set of the same source

| Variant | effect of a mutation on the interaction |
| --- | --- |
| F98R | disrupting interaction |

Variants of: B6
Settings: with ubc_human UBC
Remark: another data set of the same source

| Variant | effect of a mutation on the interaction |
| --- | --- |
| F98R | decreasing interaction strength |

Variants of: B6
Settings: with ubc_human UBC
Remark: another data set of the same source

| Variant | effect of a mutation on the interaction |
| --- | --- |
| F98R | decreasing interaction |

Variants of: B7
Settings: with ubc_human UBC

| Variant | effect of a mutation on the interaction |
| --- | --- |
| M342A;G343A | disrupting interaction strength |

Variants of: B8
Settings: with dsk2_yeast DSK2, P48510

| Variant | effect of a mutation on the interaction |
| --- | --- |
| L228N;A229N;M230N;A231N;L232N | disrupting interaction strength |

Variants of: B8
Settings: with ubql2_human UBQLN2, Q9UHD9

| Variant | effect of a mutation on the interaction |
| --- | --- |
| L228N;A229N;M230N;A231N;L232N | disrupting interaction strength |
